In publication PMC4834876 (Journal of molecular biology, 2016):

Target: F-actin (filamentous actin) from rabbit muscle (rabbit, UniProt P68135 1-377)
Experiment: co-sedimentation

B1: EB1_(248), activated fragment of EB1 lacking the auto-inhibitory acidic tail (domain or fragment)
chain: MAVNVYSTSVTSDNLSRHDMLAWINESLQLNLTKIEQLCSGAAYCQFMDMLFPGSIALKKVKFQAKLEHEYIQNFKILQAGFKRMGVDKIIPVDKLVKGKFQDNFEFVQWFKKFFDANYDGKDYDPVAARQGQETAVAPSLVAPALNKPKKPLTSSSAAPQRPISTQRTAAAPKAGPGVVRKNPGVGNGDDEAAELMQQVNVLKLTVEDLEKERDFYFGKLRNIELICQENEGENDPVLQRIVDILYA
B1 gave a Kd of ~7 µM.
